According to US20140212379A1 (AbbVie / Abbott, published 2014):

T1: Cynomolgus IL-1α (cynomolgus, UniProt P79340 113-271)
T1 sequence (looked up): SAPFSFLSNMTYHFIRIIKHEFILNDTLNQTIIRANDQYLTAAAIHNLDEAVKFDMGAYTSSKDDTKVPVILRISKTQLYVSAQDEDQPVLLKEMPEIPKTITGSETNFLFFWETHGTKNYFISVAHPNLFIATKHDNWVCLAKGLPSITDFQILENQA

T2: Cynomolgus IL-1β (cynomolgus, UniProt P79182 117-268)
T2 sequence (looked up): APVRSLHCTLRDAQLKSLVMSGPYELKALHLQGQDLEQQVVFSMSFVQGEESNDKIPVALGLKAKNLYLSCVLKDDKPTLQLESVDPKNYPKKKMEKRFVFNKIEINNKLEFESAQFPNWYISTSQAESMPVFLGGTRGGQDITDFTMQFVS

T3: Human mature IL-1α (human, UniProt P01583 113-271)
T3 sequence: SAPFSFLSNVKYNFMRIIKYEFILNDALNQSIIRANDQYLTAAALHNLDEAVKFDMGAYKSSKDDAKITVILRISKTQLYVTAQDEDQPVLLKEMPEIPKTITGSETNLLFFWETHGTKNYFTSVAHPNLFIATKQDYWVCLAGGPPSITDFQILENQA

B1: E26.13-SS-X3 JM DVD-Ig (bispecific antibody, human IgG1, kappa, L234A L235A)
heavy: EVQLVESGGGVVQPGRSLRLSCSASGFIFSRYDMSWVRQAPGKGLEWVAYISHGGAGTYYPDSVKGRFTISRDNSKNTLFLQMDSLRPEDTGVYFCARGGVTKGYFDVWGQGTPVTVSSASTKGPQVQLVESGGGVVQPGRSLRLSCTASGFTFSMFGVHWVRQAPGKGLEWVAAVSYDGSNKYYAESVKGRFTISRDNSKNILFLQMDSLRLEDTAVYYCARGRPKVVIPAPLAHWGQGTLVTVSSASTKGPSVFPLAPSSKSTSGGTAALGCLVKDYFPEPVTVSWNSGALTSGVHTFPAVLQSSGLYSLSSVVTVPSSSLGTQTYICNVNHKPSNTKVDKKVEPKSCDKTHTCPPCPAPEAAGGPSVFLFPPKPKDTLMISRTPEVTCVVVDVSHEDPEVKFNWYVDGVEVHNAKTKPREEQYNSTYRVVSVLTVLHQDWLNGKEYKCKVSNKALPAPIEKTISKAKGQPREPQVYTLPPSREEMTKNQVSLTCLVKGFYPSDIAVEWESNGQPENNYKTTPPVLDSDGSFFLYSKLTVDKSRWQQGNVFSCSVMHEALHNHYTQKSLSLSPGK
light: DIQMTQSPSSLSASVGDRVTITCRASGNIHNYLTWYQQTPGKAPKLLIYNAKTLADGVPSRFSGSGSGTDYTFTISSLQPEDIATYYCQHFWSIPYTFGQGTKLQITRTVAAPDIQMTQSPSSVSASVGDRVTITCRASQGISSWLAWYQQKPGKAPKLLIYEASNLETGVPSRFSGSGSGSDFTLTISSLQPEDFATYYCQQTSSFLLSFGGGTKVEIKRTVAAPSVFIFPPSDEQLKSGTASVVCLLNNFYPREAKVQWKVDNALQSGNSQESVTEQDSKDSTYSLSSTLTLSKADYEKHKVYACEVTHQGLSSPVTKSFNRGEC
B2: E26.35-SS-X3 DVD-Ig (bispecific antibody, human IgG1, kappa, L234A L235A)
heavy: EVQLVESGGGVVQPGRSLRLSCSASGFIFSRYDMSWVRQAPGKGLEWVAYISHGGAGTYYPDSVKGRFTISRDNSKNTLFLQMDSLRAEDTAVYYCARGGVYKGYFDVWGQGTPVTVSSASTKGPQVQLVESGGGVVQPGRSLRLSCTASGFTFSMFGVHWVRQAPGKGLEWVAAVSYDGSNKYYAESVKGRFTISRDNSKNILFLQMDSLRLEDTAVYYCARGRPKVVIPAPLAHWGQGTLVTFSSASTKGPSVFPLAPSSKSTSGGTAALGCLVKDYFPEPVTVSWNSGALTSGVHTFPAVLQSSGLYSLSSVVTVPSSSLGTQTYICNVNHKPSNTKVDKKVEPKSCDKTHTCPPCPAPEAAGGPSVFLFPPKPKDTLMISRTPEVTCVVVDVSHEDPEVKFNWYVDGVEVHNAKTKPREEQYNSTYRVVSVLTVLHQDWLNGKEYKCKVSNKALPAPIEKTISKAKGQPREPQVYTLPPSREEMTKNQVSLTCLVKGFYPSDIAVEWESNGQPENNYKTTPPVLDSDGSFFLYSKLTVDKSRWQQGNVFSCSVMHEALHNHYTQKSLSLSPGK
light: DIQMTQSPSSLSASVGDRVTITCRASGNIHNYLTWYQQTPGKAPKLLIYNAKTLADGVPSRFSGSGSGTDYTFTISSLQPEDIATYYCQHFWSIPYTFGQGTKLQITRTVAAPDIQMTQSPSSVSASVGDRVTITCRASQGISSWLAWYQQKPGKAPKLLIYEASNLETGVPSRFSGSGSGSDFTLTISSLQPEDFATYYCQQTSSFLLSFGGGTKVEHKRTVAAPSVFIFPPSDEQLKSGTASVVCLLNNFYPREAKVQWKVDNALQSGNSQESVTEQDSKDSTYSLSSTLTLSKADYEKHKVYACEVTHQGLSSPVTKSFNRGEC
B3: X3-LL-E26.13 DVD-Ig (bispecific antibody, human IgG1, kappa, L234A L235A)
heavy: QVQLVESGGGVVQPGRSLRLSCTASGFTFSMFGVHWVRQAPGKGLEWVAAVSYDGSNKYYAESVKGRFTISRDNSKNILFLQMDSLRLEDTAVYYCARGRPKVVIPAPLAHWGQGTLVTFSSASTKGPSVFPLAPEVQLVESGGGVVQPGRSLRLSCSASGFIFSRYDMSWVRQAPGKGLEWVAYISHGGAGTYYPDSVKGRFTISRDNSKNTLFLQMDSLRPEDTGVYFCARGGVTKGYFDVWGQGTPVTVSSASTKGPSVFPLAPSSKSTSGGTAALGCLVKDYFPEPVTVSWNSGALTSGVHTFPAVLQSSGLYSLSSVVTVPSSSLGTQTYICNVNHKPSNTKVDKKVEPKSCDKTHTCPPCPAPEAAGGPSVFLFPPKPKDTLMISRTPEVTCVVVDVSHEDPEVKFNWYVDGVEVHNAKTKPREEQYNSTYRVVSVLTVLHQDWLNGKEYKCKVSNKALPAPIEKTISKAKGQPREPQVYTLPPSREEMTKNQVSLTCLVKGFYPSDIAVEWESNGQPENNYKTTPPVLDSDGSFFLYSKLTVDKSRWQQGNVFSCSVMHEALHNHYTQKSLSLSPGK
light: DIQMTQSPSSVSASVGDRVTITCRASQGISSWLAWYQQKPGKAPKLLIYEASNLETGVPSRFSGSGSGSDFTLTISSLQPEDFATYYCQQTSSFLLSFGGGTKVEHKRTVAAPSVFIFPPDIQMTQSPSSLSASVGDRVTITCRASGNIHNYLTWYQQTPGKAPKLLIYNAKTLADGVPSRFSGSGSGTDYTFTISSLQPEDIATYYCQHFWSIPYTFGQGTKLQITRTVAAPSVFIFPPSDEQLKSGTASVVCLLNNFYPREAKVQWKVDNALQSGNSQESVTEQDSKDSTYSLSSTLTLSKADYEKHKVYACEVTHQGLSSPVTKSFNRGEC
B4: E26.13-LL-X3 DVD-Ig (bispecific antibody, human IgG1, kappa, L234A L235A)
heavy: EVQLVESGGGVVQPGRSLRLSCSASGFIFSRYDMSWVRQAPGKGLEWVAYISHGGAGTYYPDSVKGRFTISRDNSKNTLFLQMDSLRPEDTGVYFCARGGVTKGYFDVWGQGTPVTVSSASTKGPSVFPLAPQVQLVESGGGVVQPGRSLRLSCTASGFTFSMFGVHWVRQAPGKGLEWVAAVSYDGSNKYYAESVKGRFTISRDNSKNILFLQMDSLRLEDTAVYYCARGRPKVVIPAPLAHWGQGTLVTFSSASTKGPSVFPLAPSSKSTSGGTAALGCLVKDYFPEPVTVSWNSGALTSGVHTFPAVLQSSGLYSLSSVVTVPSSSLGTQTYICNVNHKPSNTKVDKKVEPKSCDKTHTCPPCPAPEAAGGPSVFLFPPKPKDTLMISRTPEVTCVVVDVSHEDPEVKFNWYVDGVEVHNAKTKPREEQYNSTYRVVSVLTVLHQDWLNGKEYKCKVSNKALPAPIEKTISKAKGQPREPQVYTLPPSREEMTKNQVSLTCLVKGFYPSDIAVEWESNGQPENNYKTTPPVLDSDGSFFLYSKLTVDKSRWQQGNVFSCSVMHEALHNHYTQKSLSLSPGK
light: DIQMTQSPSSLSASVGDRVTITCRASGNIHNYLTWYQQTPGKAPKLLIYNAKTLADGVPSRFSGSGSGTDYTFTISSLQPEDIATYYCQHFWSIPYTFGQGTKLQITRTVAAPSVFIFPPDIQMTQSPSSVSASVGDRVTITCRASQGISSWLAWYQQKPGKAPKLLIYEASNLETGVPSRFSGSGSGSDFTLTISSLQPEDFATYYCQQTSSFLLSFGGGTKVEHKRTVAAPSVFIFPPSDEQLKSGTASVVCLLNNFYPREAKVQWKVDNALQSGNSQESVTEQDSKDSTYSLSSTLTLSKADYEKHKVYACEVTHQGLSSPVTKSFNRGEC

Columns and labels:
Experiment in all cases: cell-based or functional assay
Cynomolgus IL-1α = biological target: T1, Cynomolgus IL-1α
Cynomolgus IL-1β = biological target: T2, Cynomolgus IL-1β
Human mature IL-1α = biological target: T3, Human mature IL-1α
Human mature IL-1β = Human mature IL-1β (human, UniProt P01584 117-269)

| Binder | Potency (pM), inhibition of IL-1-induced hIL-8 in MRC5 cells (Cynomolgus IL-1α) [pM] | Potency (pM), inhibition of IL-1-induced hIL-8 in MRC5 cells (Cynomolgus IL-1β) [pM] | Potency (pM), inhibition of IL-1-induced hIL-8 in MRC5 cells (Human mature IL-1α) [pM] | Potency (pM), inhibition of IL-1-induced hIL-8 in MRC5 cells (Human mature IL-1β) [pM] |
| --- | --- | --- | --- | --- |
| B1 | 1880 | 17.6 | 26.5 |  |
| B2 | 474 | 0.6 | 25.8 | 1.8 |
| B3 |  |  | 8.9 | 1470 |
| B4 | 1050 |  | 10.2 |  |
